Laboratory results reported in patent US20160215061A1 (Merck Sharp & Dohme, published 2016).
Changes are numbered by the printed parent chain. Numbers in names are those of the source.

T1: recombinant human FcγRIIB expressed in CHO cells (human, UniProt P31994 43-217, limits assumed)
T1 construct: Soluble analyte injected in SPR; also called human FcgRIIB; rhFcgRIIB (CHO)
T1 sequence (looked up): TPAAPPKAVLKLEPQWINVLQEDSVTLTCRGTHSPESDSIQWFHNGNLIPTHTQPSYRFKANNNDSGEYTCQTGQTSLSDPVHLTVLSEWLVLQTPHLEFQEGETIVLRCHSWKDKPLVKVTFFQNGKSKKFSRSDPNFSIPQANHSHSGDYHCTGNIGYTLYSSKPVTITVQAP

T2: recombinant mouse FcγRIIB expressed in NS0 cells (mouse, UniProt P08101 40-207, limits assumed)
T2 construct: Bought from R&D Systems; soluble analyte injected in SPR; also called rmFcgRIIB (NSO); CD32-B
T2 sequence (looked up): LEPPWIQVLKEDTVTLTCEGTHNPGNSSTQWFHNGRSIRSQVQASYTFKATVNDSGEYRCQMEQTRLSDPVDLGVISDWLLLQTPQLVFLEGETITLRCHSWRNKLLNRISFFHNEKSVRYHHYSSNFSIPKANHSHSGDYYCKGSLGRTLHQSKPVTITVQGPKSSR

B1: F243A/V264A/S267E/L328F Fc (SEQ ID NO8) (other)
chain: AEPKSCDKTHTCPPCPAPELLGGPSVFLAPPKPKDTLMISRTPEVTCVVADVEHEDPEVKFNWYVDGVEVHNAKTKPREEQYNSTYRVVSVLTVLHQDWLNGKEYKCKVSNKAFPAPIEKTISKAKGQPREPQVYTLPPSREEMTKNQVSLTCLVKGFYPSDIAVEWESNGQPENNYKTTPPVLDSDGSFFLYSKLTVDKSRWQQGNVFSCSVMHEALHNHYTQKSLSLSPG
notes: Human IgG1 Fc fragment with F243A, V264A, S267E, L328F (EU)
B2: 183-D4/F241A Fc (SEQ ID NO13) (other)
chain: AEPKSCDKTHTCPPCPAPELLGGPSVALFPPKPKDTLMISRTPEVTCVVVDVSHEDPEVKFNWYVDGVEVHNAKTKPREEQYNSTYRVVSVLTVLHQDWLNGEEYKCKVSNEALPAPIEKTISKTKGRPREPQVYTLPPSRDELTKNQVSLTCLVKGFYPSDIAVEWESNGQPENNYKTTPPVLDSDGSFFLYSKLTVDRSRWQQGNVFSCSVMHEALHNHYTQKSLSLSPGK
notes: Human IgG1 Fc fragment with F241A, K317E, K326E, A339T, Q342R, K414R (EU)
B3: 183-D4/F241A/L328F Fc (SEQ ID NO12) (other)
chain: B2 chain with L114F
notes: Human IgG1 Fc fragment with F241A, K317E, K326E, L328F, A339T, Q342R, K414R (EU)
B4: K317E/K326E/K414R Fc (SEQ ID NO11) (other)
chain: B2 chain with A27F, T125A, R128Q
notes: Human IgG1 Fc fragment, made in glycoengineered Pichia pastoris

Assays:
[1] = target: T1, recombinant human FcγRIIB expressed in …; assay: SPR (Biacore), 1/1 binding model; reference Herceptin
[2] = target: T1, recombinant human FcγRIIB expressed in …; assay: SPR (Biacore); capture sample on chip, rhFcgRIIB (CHO) injected; reference Herceptin
Protocol: (§1) Purified IgGs were analyzed by SDS-PAGE for expression and assayed for binding to human or mouse FcγRIIB. […] The CMS chip (GE Healthcare, Wauwatusa, Wis.) was immobilized on all flow cells with mouse anti-human IgG (Fc specific) (obtained from GE Healthcare, Wauwatusa, Wis.) according to the Biacore Human Antibody Capture Kit to ˜7000 RU. Purified full-length IgG1 variants containing mutations in Fc region (described in Example 1) were captured on the chip through immobilized mouse anti-human IgG (obtained from GE Healthcare, Wauwatusa, Wis.) followed by injection of human or mouse FcγRIIB. Human FcγRIIB was expressed in Chinese Hamster Ovary cells (Merck, Whithouse Station, N.J.) and mouse FcγRIIB was expressed in NS0 murine myeloma (R&D Systems, Minneapolis, Minn.)). Each flowcell was regenerated between each analyte injection with 3M MgCl for 40 s at 10 μl/min. Data was analyzed with Biacore T100 Evaluation Software using the 1/1 binding model for KD values, where reported. Amino acid compositions of novel variants were identified by DNA sequencing. Clones were tabulated based on response units (RU's) registered following receptor binding.
(§2) Resulting clones were fermented in 1 L bioreactor vessels to produce each of the described variants. Culture supernatants were passed over protein A coated beads to capture secreted Fc fragments. Purified Fc fragments were eluted at pH 3.0 into tubes containing 1M Tris (pH 8.0). Purified Fc fragments were analyzed by surface plasmon resonance (SPR) on Biacore for binding to human and mouse FcγRIIB as described in Example 2.

[3] = target: T2, recombinant mouse FcγRIIB expressed in …; assay: SPR (Biacore); capture sample on chip, rmFcgRIIB (NSO) injected; reference Herceptin
Protocol: as §1, §2

Row | Binder | Fold Improvement in KD vs WT IgG1 rhFcgRIIb [1] [fold] | Fold Increase in RU vs WT IgG1 [2] [fold] | Fold Increase in RU vs WT IgG1 [3] [fold]
1 | B1 | 11 | 7 | 2.4
2 | B2 |  | 4.7 | 5
3 | B3 |  | 1.2 | 1.3
4 | B4 |  |  | 5.2
